Our source for the self-cleavage values is the RNAGym collection of RNA variant scans (doi:10.7554/elife.90254).

B1: LINE1-full (parent)
chain: UACGUAGGUGGUUUUCCCCUGAUAGUGCUAAGGGGGCCUGGAAGUUUGGACUGGGCAGAGCUCAACACAGCGUGGCAAAGUGGCUGUGGCUAGACUGCCUCUCUGGAUUCCUCGUCACUCAGCAGGGCAUCUCUGAGAGAAAUGCC

Variants of B1 are the subject of this data set. Put plainly: self-cleavage, relative activity (ratio to wild type); higher = more cleavage; in vitro, sequencing; the parent is a self-cleaving ribozyme.
As to G88U G126A, the self-cleavage came out at 0.
The value for U85A G125A was 0.04.
Then U87C U108C, with 0.24; and U87C U108A, with 0.15.
As for U91A U119C, the self-cleavage was 0.84.
Regarding G89A A141G, the self-cleavage worked out at 0.02.
In the case of G89A A141U, the self-cleavage was determined as 0.02.
With G89A A142G, the self-cleavage was 0.03.
Then U91C U108A, with 0.55; and C90U G114U, with 0.03; and U87C A138U, with 0.24.
As to U87C U132A, the self-cleavage is 0.33.
The value for U87A U130A was 0.09; that for U87A U130C was 0.08.
The value for U85G U104C was 0; that for U85G A141G was 0.1.
For the variant U85C U115A, the self-cleavage worked out at 0.19.
The value for U87G A140U was 0.13; that for A92G A107G was 0.17.
In the case of U87A G106A, the self-cleavage came to 0.06.
Then U87A G106C, with 0.08; and U85G A142G, with 0.1.
Then U85G A136G, with 0; and U85C A140G, with 0.15; and U91A A124G, with 0.33.
With G86A U100C, the self-cleavage turned out to be 0.1.
The value for U91G A140G was 0.02; that for C90U A141G was 0.03.
Then G88A A141G, with 0.08; and U91C C123U, with 0.8.
As to U91A U115C, the self-cleavage came out at 0.78.
G86A U119C: the self-cleavage came to 0.07.
Then U91C C98U, with 0.19; and C90U U96A, with 0.06.
In the case of U87A U91A, the self-cleavage was found to be 0.12.
The value for A92C C128U was 0.31; that for U91C U134C was 0.87; that for U91C U134A was 0.57.
The value for U91G A94G was 0; that for U87C A92G was 0.1; that for U91C G114A was 0.57.
Then U85A U100C, with 0.21; and U87C C99U, with 0.13.
Consider G88A A142G, for which the self-cleavage was determined as 0.06.
Then U87A A142G, with 0.07.
Then U87C C131U, with 0.15; and U85C G86U, with 0.07.
Then U85G U119A, with 0.19; and G89A A140U, with 0.02; and U87A G122A, with 0.09.
For U91A U96C, the self-cleavage was 0.12.
Take U87C A121G: the self-cleavage is 0.15.
As to U87A C146U, the self-cleavage worked out at 0.09.
As for A92G A124U, the self-cleavage stood at 0.09.
In the case of U91C A140G, the self-cleavage was 0.75.
On to U91C A136U, for which the self-cleavage amounted to 0.58.
Then U91C A138U, with 0.6; and G86A U96C, with 0.05; and G88A A140G, with 0.08.
The value for U91A was 0.58; that for U91G was 0.04.
Then U91C, with 0.67.
As for U85G U130C, the self-cleavage was determined as 0.24.
Then U87G A142G, with 0.25; and G89A U112A, with 0.05; and U87C U102C, with 0.36.
The value for U85A C116U was 0.11.
Then U85A C116A, with 0; and U87A A117U, with 0.04; and U85C U91A, with 0.14.
Turning to G89C A107G, the self-cleavage stood at 0.11.
For the variant U85C G105A, the self-cleavage turned out to be 0.12.
Then U87G U119G, with 0.3; and U87C U115C, with 0.31; and U87C U115A, with 0.17.
The value for U85C U130A was 0.35; that for U85C U130C was 0.23.
The value for G86A C110U was 0.09; that for G86A A142G was 0.06.
For U87C C111U, the self-cleavage amounted to 0.23.
Consider U87C C146U, for which the self-cleavage came out at 0.34.
Turning to G88A A92G, the self-cleavage is 0.02.
The value for U87C U130A was 0.19.
With U87C U130C, the self-cleavage came to 0.35.
The value for U87A A141U was 0.08.
Then U87A A141G, with 0.06; and U87C A107G, with 0.27; and G89A A117G, with 0.05.
Consider U91C U130C, for which the self-cleavage turned out to be 0.77.
With U85A G105A, the self-cleavage was 0.04.
Then C90G U132C, with 0.05; and G88C A141G, with 0.14; and U85A G127A, with 0.06.
Then U91C A107G, with 0.73.
The value for U85A U112C was 0.04; that for U91A C116U was 0.53.
As for U87G A136U, the self-cleavage worked out at 0.18.
Then A92C A124G, with 0.
The value for U87C A141G was 0.24; that for U91G A129U was 0.05; that for C90U U100C was 0.
As for U85C A107G, the self-cleavage is 0.15.
In the case of U87C U91C, the self-cleavage was 0.31.
On to U87C U91A, for which the self-cleavage amounted to 0.2.
The value for G86U A129G was 0.09.
The value for C90G A136U was 0.04.
For U87A U119G, the self-cleavage worked out at 0.07.
With U85C G139U, the self-cleavage stood at 0.22.
Turning to U91G U108C, the self-cleavage was found to be 0.
Then G86U A124G, with 0.07; and G86A A117G, with 0.09.
Then U87A A138U, with 0.03.
Then U87C A140G, with 0.13.
As for U87C A140U, the self-cleavage was 0.22.
The value for A92C A129G was 0; that for G89A A138U was 0.05; that for G86U A138G was 0.09.
Then A92G A121U, with 0.09; and A92G A121G, with 0.11.
Then A92G A129G, with 0.
For C90G U134A, the self-cleavage was found to be 0.03.
On to G86A U115A, for which the self-cleavage came out at 0.01.
Then U85A U132C, with 0.09; and U91A A141G, with 0.51.
As for U85A U87A, the self-cleavage came to 0.07.
On to U85A U87G, for which the self-cleavage was 0.07.
The value for U85C U102G was 0.22.
The value for U85C U102A was 0.18; that for U87G U100C was 0.28; that for U87C A124G was 0.11.
For U87C A124U, the self-cleavage was 0.33.
Then U87A C145U, with 0.1; and U85C A94G, with 0.07; and U85C A94U, with 0.14.
The value for U85C U109G was 0.
The value for U87A A140G was 0.07; that for G89A U115C was 0.04; that for G89A U143C was 0.03.
For U85C C99U, the self-cleavage stood at 0.07.
The value for C90U U132C was 0.03; that for C90U U132A was 0.01; that for U91C U112C was 0.59.
The value for U87G A124G was 0.31; that for U87G A124U was 0.17.
The value for G89A A136G was 0.04; that for U87A U104A was 0.06.
For U87A U104C, the self-cleavage was 0.11.
The value for G89C G144A was 0.05; that for U85G U102C was 0.55.
The value for U87A A107G was 0.1; that for U87A A107U was 0.09; that for U85A U143A was 0.08.
Then U85A U143C, with 0.11; and A92C A141G, with 0.26.
For U85A U119C, the self-cleavage was 0.09.
For U85C G125U, the self-cleavage is 0.11.
The value for U85C G125C was 0.29; that for G89A U96C was 0.07; that for G88U U115A was 0.07.
Then U85C A117U, with 0.19; and U85C A117G, with 0.15; and U85C C98U, with 0.01.
The value for A92G A138G was 0.08; that for U87G A94G was 0; that for U91A U130G was 1.24.
Take U85A U96G: the self-cleavage was 0.15.
Then U87A C98U, with 0.05.
